In brackets after ≈: the same amount, converted by molar mass. Like-named read-outs stand apart in the source and are kept apart here. One block for each compound: values may come before it.
Experiments:
[1] = human, cited from earlier work
[2] = rabbit, cited from earlier work
[3] = RRI of 0.02 and reservoir volume of 25 uL; as described in U.S. Pub. No. 2010/0255061; cited from earlier work
[4] = monkey, cited from earlier work
[5] = Critical micelle concentration (CMC) of surfactant, surface tension with Wilhelmy plate; type: physicochemical
Excerpt: The CMC can be determined from a variety of techniques such as measurements of surface tension using a Wilhelmy plate. The CMC for a particular surfactant may be dependent on a variety of parameters such as the concentrations of other components in the formulation and the temperature.
Surface tension measurements may be performed with a Wilhemy plate to determine the CMC; i.e., polysorbate 20 concentration threshold for constant surface tension. Devices can then be filled with formulations containing polysorbate 20 concentrations that are 0, 1, 5 and 20 times the CMC. These devices can be subjected to drug release testing and stability assays as described in Example 2.

[6] = Solubility of therapeutic agent suspension in buffer; type: physicochemical; conditions: aqueous buffer; in the buffer at 37C
Excerpt: The therapeutic agent stored in the reservoir of the container comprises at least one of a solid comprising the therapeutic agent, a solution comprising the therapeutic agent, a suspension comprising the therapeutic agent, particles comprising the therapeutic agent adsorbed thereon, or particles reversibly bound to the therapeutic agent. For example, reservoir may comprise a suspension of a cortico-steroid such as triamcinolone acetonide to treat inflammation of the retina.

Compound: Ranibizumab: antibody derivative (Fab fragment), VEGF inhibitor; active ingredient of Lucentis™
- half-life in the vitreous ([1]; listed as Lucentis™): about nine
- half-life in the vitreous ([1]; listed as ranibizumab): ~220 h
- half-life in the vitreous ([2]; listed as Lucentis™): two to four
- half-life in the vitreous ([2]; listed as ranibizumab): approximately 3 days
- half-life in device 100 [3]: about 100 days
- half-life in the vitreous ([4]; listed as Lucentis™): two to four
- half-life in the vitreous ([4]; listed as ranibizumab): approximately 3 days

- CMC (wt %) ([5]; CMC 1e−5 M): 0.001% wt %
- CMC (wt %) ([5]; CMC 8e−5 M): 0.01% wt %
Compound: Polysorbate 20

- solubility [6]: ~19 µg/mL (≈ 43.7 µM)
Compound: CC1(C)O[C@@H]2C[C@H]3[C@@H]4CCC5=CC(=O)C=C[C@]5(C)[C@@]4(F)[C@@H](O)C[C@]3(C)[C@]2(C(=O)CO)O1 [triamcinolone acetonide]

Source: patent US20140031769A1, “THERAPEUTIC AGENT FORMULATIONS FOR IMPLANTED DEVICES” (ForSight Vision4, Inc., priority 2010, published 2014)
